Laboratory results taken from paper PMC11002876, “KcsA-Kv1.x chimeras with complete ligand-binding sites provide improved predictivity for screening selective Kv1.x blockers” (The Journal of Biological Chemistry, 2024).

Tests used:
[1] = target: KcsA-Kv1.3 turret-filter chimera (Streptomyces lividans | human); experiment: ELISA
[2] = target: KcsA-Kv1.3 turret-only chimera (Streptomyces lividans | human); experiment: ELISA
[3] = system: human Kv1.3 channel (hKv1.3); experiment: Whole-cell patch-clamp of phage-displayed toxins, hKv1.3 in human lymphocytes; assay type: cell-based; conditions: perfusion concentration; phage-displayed toxin; experimentally titrated; N = 3
Experimental: Human Kv1.3 currents were recorded from activated peripheral blood mononuclear cells (see below) 3 to 4 days after activation. Heparinized human peripheral venous blood was obtained from healthy volunteers. Mononuclear cells were separated through Histopaque-1077 density gradient centrifugation. Collected cells were washed twice with Ca^2+- and Mg^2+-free Hanks’ solution containing 25 mM Hepes buffer, pH 7.4. Cells were cultured for 3 to 4 days in 24-well culture plates in a 5% CO2 incubator at 37 °C, in RPMI 1640 medium supplemented with 10% fetal calf serum (Sigma-Aldrich), 100 μg/ml penicillin, 100 μg/ml streptomycin, and 2 mM L-glutamine (density, 0.5 × 10^6 cells per ml). Phytohemagglutinin A (Sigma-Aldrich) was added to the medium at 10 μg/ml to amplify the Kv1.3 expression. Cells were washed gently twice with 2 ml of ECS for the patch-clamp experiments.
Conventional whole-cell patch-clamp electrophysiology was used to record ionic currents. Micropipettes were pulled from GC150F-7.5 borosilicate capillaries (Harvard Apparatus) with tip diameters between 0.5 and 1 μm resulting in a tip resistance of 2 to 8 MΩ in the extracellular (bath) solution. All measurements were carried out by using Axopatch 200B amplifier connected to a personal computer using Axon Digidata 1550A data acquisition hardware and Pclamp10.7 software (https://support.moleculardevices.com/s/article/Axon-pCLAMP-10-Electrophysiology-Data-Acquisition-Analysis-Software-Download-Page). The holding potential was −120 mV. Records were discarded when leak at the holding potential was >10% of peak current at the test potential. Experiments were performed at room temperature (20–24 °C). Before analysis, whole-cell current traces were corrected for ohmic leakage and digitally filtered with a three-point boxcar smoothing filter.
Solutions: all salts and components of the solutions were purchased from Sigma Aldrich. The extracellular (bath) solution (ECS) contained 145 mM NaCl, 5 mM KCl, 2.5 mM CaCl2, 1 mM MgCl2, 10 mM Hepes, and 5.5 mM glucose (pH 7.35 with NaOH), while the intracellular (pipette) solution (ICS) contained 140 mM KF, 2 mM MgCl2, 1 mM CaCl2, 11 mM EGTA, and 10 mM Hepes (pH 7.22 with KOH). The osmolarity of the ECS and ICS were 302 mOsM.
Native peptides, phage-expressed peptides, and positive controls used for them were dissolved in ECS supplemented with 0.1 mg/ml bovine serum albumin (BSA; Sigma-Aldrich Hungary). Bath perfusion around the measured cell with different extracellular solutions was achieved using a gravity flow micro perfusion system using a rate of 0.5 ml/min. Excess fluid was removed continuously.
Voltage protocols: For measurement of Kv1.1 to 1.3 currents, voltage steps to +50 mV were applied from a holding potential of −120 mV and the peak current was measured every 15 s. For Kv1.3 currents, 15-ms-long depolarizing pulses were applied. For Kv1.1, 50-ms-long–activating stimuli were used. Kv1.2 currents were evoked by 200-ms-long pulses. […] The remaining current fraction at a given molar concentration was calculated as I/I0, where I0 is the peak current in the absence and I is the peak current at equilibrium block or […] after ∼2 min perfusion by the investigated peptide/phage.
Phage display test solutions were prepared according to routine phage display protocols ([62]). Phosphorylated and annealed oligonucleotides encoding the peptide construct were ligated into linearized pAS62 phagemid vector (https://patents.google.com/patent/WO2022144560A1/en) at a vector/insert ratio of 1:3. The final phagemid construct harbored a signal sequence followed by the peptide of interest, a linker sequence ([…]), and the C-terminal part of the P3 coat protein (amino acids: 216-424 of NP_510891.1). Chemically competent XL1-Blue E. coli cells (2022249, Agilent) were transformed with the ligation product and then streaked onto ampicillin (100 μg/ml) containing LB/Amp plates and incubated for 16 h at 37 °C.

[4] = target: KcsA-Kv1.2 turret-filter chimera (Streptomyces lividans | human); experiment: ELISA
[5] = target: KcsA-Kv1.2 turret-only chimera (Streptomyces lividans | human); experiment: ELISA
[6] = target: KcsA-Kv1.1 turret-only chimera (Streptomyces lividans | human); experiment: ELISA
[7] = target: KcsA-Kv1.1 turret-filter chimera (Streptomyces lividans | human); experiment: ELISA
[8] = target: KcsA-Kv1.1 turret-filter chimera (Streptomyces lividans | human); experiment: native gel or EMSA
[9] = target: KcsA-Kv1.1 turret-filter chimera (Streptomyces lividans | human); experiment: SDS-PAGE and western blot; purified proteins, 0.5 ug/well, Tris-Glycine gradient gel, 200 V 55 min; western blot with anti-His antibody; monomers and tetramers by migration
[10] = target: KcsA-Kv1.1 turret-only chimera (Streptomyces lividans | human); experiment: native gel or EMSA
[11] = target: KcsA-Kv1.1 turret-only chimera (Streptomyces lividans | human); experiment: SDS-PAGE and western blot; purified proteins, 0.5 ug/well, Tris-Glycine gradient gel, 200 V 55 min; western blot with anti-His antibody; monomers and tetramers by migration
[12] = target: KcsA-Kv1.2 turret-filter chimera (Streptomyces lividans | human); experiment: native gel or EMSA
[13] = target: KcsA-Kv1.2 turret-only chimera (Streptomyces lividans | human); experiment: native gel or EMSA
[14] = target: KcsA-Kv1.3 turret-filter chimera (Streptomyces lividans | human); experiment: native gel or EMSA
[15] = target: KcsA-Kv1.3 turret-filter chimera (Streptomyces lividans | human); experiment: SDS-PAGE and western blot; purified proteins, 0.5 ug/well, Tris-Glycine gradient gel, 200 V 55 min; western blot with anti-His antibody; monomers and tetramers by migration
[16] = target: KcsA-Kv1.3 turret-only chimera (Streptomyces lividans | human); experiment: native gel or EMSA
[17] = target: KcsA-Kv1.3 turret-only chimera (Streptomyces lividans | human); experiment: SDS-PAGE and western blot; purified proteins, 0.5 ug/well, Tris-Glycine gradient gel, 200 V 55 min; western blot with anti-His antibody; monomers and tetramers by migration
[18] = target: human Kv1.3 voltage-gated potassium channel on activated human lymphocytes (human (endogenous in peripheral blood mononuclear cells)) (UniProt P22001)
Sequence of human Kv1.3 voltage-gated potassium channel on activated human lymphocytes (human (endogenous in peripheral blood mononuclear cells)) (P22001 whole entry): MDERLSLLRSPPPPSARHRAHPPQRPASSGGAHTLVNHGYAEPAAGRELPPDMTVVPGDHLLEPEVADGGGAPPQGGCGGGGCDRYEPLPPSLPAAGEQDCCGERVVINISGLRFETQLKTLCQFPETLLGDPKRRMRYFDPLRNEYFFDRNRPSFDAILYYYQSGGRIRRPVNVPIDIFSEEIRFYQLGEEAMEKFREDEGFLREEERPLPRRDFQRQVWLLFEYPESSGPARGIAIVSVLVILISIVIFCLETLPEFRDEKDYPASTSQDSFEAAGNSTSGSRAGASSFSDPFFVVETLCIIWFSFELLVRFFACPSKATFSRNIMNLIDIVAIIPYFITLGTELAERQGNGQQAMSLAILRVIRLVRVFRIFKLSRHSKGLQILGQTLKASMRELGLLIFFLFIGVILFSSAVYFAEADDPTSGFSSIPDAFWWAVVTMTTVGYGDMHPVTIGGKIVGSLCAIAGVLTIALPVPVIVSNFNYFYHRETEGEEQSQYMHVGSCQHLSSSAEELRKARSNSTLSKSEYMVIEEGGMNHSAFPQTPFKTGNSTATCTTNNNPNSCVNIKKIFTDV

[19] = target: human Kv1.3 voltage-gated potassium channel on activated human lymphocytes (human (endogenous in peripheral blood mononuclear cells)) (UniProt P22001); remark: listed apart in the source

## Hongotoxin-1, synthetic peptide (from UniProt P59847 1-39)
[1]
  IC50: 0.108 nM
[2]
  IC50: 0.671 nM

## KTX1-phage: KTX1 fused to the P3 coat protein of M13 phage with an eight amino acid linker (GVEINVKCSGSPQCLKPCKDAGMRFGKCMNRKCHCTPK; not fully specified; left off: M13 P3 coat protein C-terminal part (amino acids 216-424 of NP_510891.1) behind the linker GSASSATR, C-terminal, kept)
[3]
  phage concentration giving approximate 50% block of hKv1.3 current: ~3.6 × 10^13 particle/ml

## Kaliotoxin-1, synthetic peptide (from UniProt P24662 1-38)
[4]
  IC50: 205 nM
[5]
  IC50: 0.185 nM
[6]
  IC50: 1.27 nM
[7]
  IC50: 1.49 nM
[1]
  IC50: 98.2 nM
[2]
  IC50: 0.416 nM

## KcsA-Kv1.1 turret-filter chimera
[8]
  stoichiometry N: 4
[9]
  stoichiometry N: 4

## KcsA-Kv1.1 turret-only chimera
[10]
  stoichiometry N: 4
[11]
  stoichiometry N: 4

## KcsA-Kv1.2 turret-filter chimera
[12]
  stoichiometry N: 4

## KcsA-Kv1.2 turret-only chimera
[13]
  stoichiometry N: 4

## KcsA-Kv1.3 turret-filter chimera
[14]
  stoichiometry N: 4
[15]
  stoichiometry N: 4

## KcsA-Kv1.3 turret-only chimera
[16]
  stoichiometry N: 4
[17]
  stoichiometry N: 4

## Stichodactyla toxin ShK, synthetic peptide
[4]
  IC50: 15.9 nM
[5]
  IC50: 0.07 nM
[6]
  IC50: 0.317 nM
[7]
  IC50: 0.271 nM

## Vm24 toxin displayed on M13 phage as a fusion to the P3 coat protein (peptide)
[18]
  estimated relative potency calculated from the phage concentration required to reach 50% blocking effect on the Kv1.3 current (relative potency): 1
[19]
  phage concentration that gave a similar (50-70%) inhibition of the hKv1.3 current, whole-cell patch-clamp on human lymphocytes: 6e+10 particle/ml

## Vm24 toxin, synthetic peptide
[1]
  IC50: 0.036 nM
[2]
  IC50: 0.577 nM

## VSCTGSKDCYAPCRKQTGCPNAKCINKSCKCYGC [Maurotoxin, synthetic peptide]
[4]
  IC50: 0.129 nM
[5]
  IC50: > 1000 nM
[6]
  IC50: > 1000 nM
[7]
  IC50: > 1000 nM
